Laboratory results as given in patent US6646113 (University of Pennsylvania, dated 2003).
One block for each binder: values may come before it.

Legend:
GST alone = biological target: T1, GST alone (UniProt P08515 1-218 = GST); assay: GST pull-down, 35S IVT protein
T1 construct: Negative control on glutathione-Sepharose; also called glutathione S-transferase

[1] = biological target: Sm D1 protein, in vitro translated and 35S-labeled (UniProt P62314 1-119); assay: GST pull-down, 35S IVT protein
GST-SMN fusion protein [2] = biological target: T2, GST-SMN fusion protein (human, UniProt Q16637 1-294); assay: GST pull-down, 35S IVT protein (FIG. 44)
T2 construct: Recombinant from E. coli, immobilised on glutathione-Sepharose; also called GST-SMNwt; GST-SMN chimeric protein; not shown: glutathione S-transferase (GST) tag of vector pGEX-5X

[3] = biological target: T3, His-tagged SMN wild type, purified recombinant (human, UniProt Q16637 1-294); assay: in vitro binding of purified recombinant protein to GST-SIP1
T3 construct: E. coli BL21(DE3)pLysS, nickel chelation chromatography; also called His-SMN; His6-SMN; not shown: His6 tag (pET28 vector, detected with anti-T7 tag antibody)

[4] = biological target: T4, His-tagged SMNY272C, purified recombinant (human, UniProt Q16637 1-294); assay: as above
T4 construct: also called His-SMNY272C; SMNY272C recombinant protein; not shown: His6 tag (pET28 vector)

[5] = biological target: T5, SMN, endogenous protein in human cell extracts (human, UniProt Q16637 2-294); assay: co-IP with 2B1 from transfected 293T cells, Western blot
T5 construct: also called Survival of Motor Neurons protein

[6] = biological target: recombinant SMN protein (far-Western target) (human, UniProt Q16637 1-294, limits assumed); assay: far-Western with in vitro translated SIP1
myc-tagged SMNY272C = biological target: T6, myc-tagged SMNY272C (human, UniProt Q16637 1-294); assay: co-IP with 2E17 from transfected 293T cells, Western blot
T6 construct: In vitro translated (35S) or expressed in 293T cells

[7] = biological target: T5, SMN, endogenous protein in human cell …; assay: gel filtration (Superose 6 HR 10/30) of HeLa S100, Western blot
myc-tagged SMN wild type = biological target: T7, myc-tagged SMN wild type (human, UniProt Q16637 1-294); assay: co-IP with 2E17 from transfected 293T cells, Western blot (association in a complex)
T7 construct: In vitro translated (35S) or expressed in transfected 293T cells; also called myc-SMN; mycSMN

GST-SMN fusion protein [8] = biological target: T2, GST-SMN fusion protein; assay: GST pull-down, 35S IVT protein

T5 sequence (Q16637 2-294 limits assumed): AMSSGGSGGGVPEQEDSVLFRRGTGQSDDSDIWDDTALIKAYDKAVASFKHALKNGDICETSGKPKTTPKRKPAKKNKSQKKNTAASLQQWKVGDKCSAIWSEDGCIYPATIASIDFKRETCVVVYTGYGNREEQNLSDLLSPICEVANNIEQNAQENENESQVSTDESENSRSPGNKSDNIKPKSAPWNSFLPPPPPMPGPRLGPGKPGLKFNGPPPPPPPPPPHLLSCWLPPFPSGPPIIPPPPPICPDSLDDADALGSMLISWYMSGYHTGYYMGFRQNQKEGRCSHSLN
T2 sequence (Q16637 whole entry, the tested form may be a part): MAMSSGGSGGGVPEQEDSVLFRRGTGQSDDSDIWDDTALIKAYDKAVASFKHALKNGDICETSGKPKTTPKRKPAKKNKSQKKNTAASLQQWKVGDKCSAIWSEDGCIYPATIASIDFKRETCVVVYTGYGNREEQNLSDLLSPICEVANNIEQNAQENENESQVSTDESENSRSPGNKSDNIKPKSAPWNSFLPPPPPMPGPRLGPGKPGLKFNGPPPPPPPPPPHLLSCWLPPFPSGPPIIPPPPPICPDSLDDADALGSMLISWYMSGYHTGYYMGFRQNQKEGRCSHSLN
T1 sequence (P08515 whole entry): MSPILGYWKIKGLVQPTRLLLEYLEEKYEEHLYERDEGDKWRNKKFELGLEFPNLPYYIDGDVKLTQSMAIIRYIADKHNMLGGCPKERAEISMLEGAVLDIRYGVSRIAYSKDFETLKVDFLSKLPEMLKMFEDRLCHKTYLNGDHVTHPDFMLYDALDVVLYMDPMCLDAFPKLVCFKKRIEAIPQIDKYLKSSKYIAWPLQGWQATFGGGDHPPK
T6 sequence (Q16637 whole entry Y272C): as the sequence (Q16637 whole entry, the tested form may be a part) above, with Y272C counted along it
T4 sequence (Q16637 whole entry Y272C): as the sequence (Q16637 whole entry, the tested form may be a part) above, with Y272C counted along it
T7 sequence (Q16637 whole entry): as the sequence (Q16637 whole entry, the tested form may be a part) above
T3 sequence (Q16637 whole entry): as the sequence (Q16637 whole entry, the tested form may be a part) above
recombinant SMN protein (far-Western target), sequence (Q16637 whole entry): as the sequence (Q16637 whole entry, the tested form may be a part) above

binding result (GST-SMN fusion protein [2]): no binding
B3: myc-tagged SIP1ΔC162 (other, not shown: small tags and cut ends)
chain: MRRAELAGLKTMAWVPAESAVEELMPRLLPVEPCDLTEGFDPSVPPRTPQEYLRRVQIEAAQCPDVVVAQIDPKKLKRKQSVNISLSGCQPAPEGYSPTLQWQQQQVAQFSTVRQNVN

binding result (GST-SMN fusion protein [8]): no binding
B8: myc-ΔN548Gemin3 (other, not shown: small tags and cut ends)
chain: SVQTPVENSTNSQHQVKEALPVSLPQIPCLSSFKIHQPYTLTFAELVEDYEHYIKEGLEKPVEIIRHYTGPGDQTVNPQNGFVRNKVIEQKVPVLASSSQSGDSESDSDSYSSRTSSQSKGNKSYLESSSDNQLKDSESTPVDDRISLEQPPNGTDTPNPEKYQESPGIQMKTRLKEGASQRAKQSRRNLPRRSSFRLQTEAQEDDWYDCHREIRLSFSDTYQDYEEYWRAYYRAWQEYYAAASHSYYWNAQRHPSWMAAYHMNTIYLQEMMHSNQ

binding result (GST-SMN fusion protein [2]): no binding
binding result [5]: no binding
B9: myc-tagged SIP1ΔC89 (other, not shown: small tags and cut ends)
chain: MRRAELAGLKTMAWVPAESAVEELMPRLLPVEPCDLTEGFDPSVPPRTPQEYLRRVQIEAAQCPDVVVAQIDPKKLKRKQSVNISLSGCQPAPEGYSPTLQWQQQQVAQFSTVRQNVNKHRSHWKSQQLDSNVTMPKSEDEEGWKKFCLGEKLCADGAVGPATNESPGIDYVQIGFPPLLSIVSRMNQATV
notes: The whole entry must be cut by 89 residues at the C-terminus

The next lines start with the binder.

B1: myc-ΔN368C277Gemin3 (other, not shown: small tags and cut ends)
chain: TSRGIDAEKVNLVVNLDVPLDWETYMHRIGRAGRFGTLGLTVTYCCRGEEENMMMRIAQKCNINLLPLPDPIPSGLMEECVDWDVEVKAAVHTYGIASVPNQPLKKQIQKIERTLQIQKAHGDHMASSRNNSVSGLSVKSKNNTKQKLPVKSHSECGIIEKATSPKELGCDRQSEEQMK
notes: also called ΔN368C272Gemin3
binding result (GST alone): no binding

B2: GST-Gemin3 fusion protein (other)
chain: MAAAFEASGALAAVATAMPAEHVAVQVPAPEPTPGPVRILRTAQDLSSPRTRTGDVLLAEPADFESLLLSRPVLEGLRAAGFERPSPVQLKAIPLGRCGLDLIVQAKSGTGKTCVFSTIALDSLVLENLSTQILILAPTREIAVQIHSVITAIGIKMEGLECHVFIGGTPLSQDKTRLKKCHIAVGSPGRIKQLIELDYLNPGSIRLFILDEADKLLEEGSFQEQINWIYSSLPASKQMLAVSATYPEFLANALTKYMRDPTFVRLNSSDPSLIGLKQYYKVVNSYPLAHKVFEEKTQHLQELFSRIPFNQALVFSNLHSRAQHLADILSSKGFPAECISGNMNQNQRLDAMAKLKHFHCRVLISTDLTSRGIDAEKVNLVVNLDVPLDWETYMHRIGRAGRFGTLGLTVTYCCRGEEENMMMRIAQKCNINLLPLPDPIPSGLMEECVDWDVEVKAAVHTYGIASVPNQPLKKQIQKIERTLQIQKAHGDHMASSRNNSVSGLSVKSKNNTKQKLPVKSHSECGIIEKATSPKELGCDRQSEEQMKNSVQTPVENSTNSQHQVKEALPVSLPQIPCLSSFKIHQPYTLTFAELVEDYEHYIKEGLEKPVEIIRHYTGPGDQTVNPQNGFVRNKVIEQKVPVLASSSQSGDSESDSDSYSSRTSSQSKGNKSYLESSSDNQLKDSESTPVDDRISLEQPPNGTDTPNPEKYQESPGIQMKTRLKEGASQRAKQSRRNLPRRSSFRLQTEAQEDDWYDCHREIRLSFSDTYQDYEEYWRAYYRAWQEYYAAASHSYYWNAQRHPSWMAAYHMNTIYLQEMMHSNQ
notes: also called Gemin3-GST; not shown: glutathione S-transferase (GST) tag of vector pGEX-5X-3
binding result [1]: no binding

B4: GST-SIP1 fusion protein (other, not shown: a dimerising Fc or GST)
chain: MRRAELAGLKTMAWVPAESAVEELMPRLLPVEPCDLTEGFDPSVPPRTPQEYLRRVQIEAAQCPDVVVAQIDPKKLKRKQSVNISLSGCQPAPEGYSPTLQWQQQQVAQFSTVRQNVNKHRSHWKSQQLDSNVTMPKSEDEEGWKKFCLGEKLCADGAVGPATNESPGIDYVQIGFPPLLSIVSRMNQATVTSVLEYLSNWFGERDFTPELGRWLYALLACLEKPLLPEAHSLIRQLARRCSEVRLLVDSKDDERVPALNLLICLVSRYFDQRDLADEPS
binding result [3]: binds
binding result [4]: binds

B5: myc-tagged SIP1 wild type (other, not shown: small tags and cut ends)
chain: MRRAELAGLKTMAWVPAESAVEELMPRLLPVEPCDLTEGFDPSVPPRTPQEYLRRVQIEAAQCPDVVVAQIDPKKLKRKQSVNISLSGCQPAPEGYSPTLQWQQQQVAQFSTVRQNVNKHRSHWKSQQLDSNVTMPKSEDEEGWKKFCLGEKLCADGAVGPATNESPGIDYVQIGFPPLLSIVSRMNQATVTSVLEYLSNWFGERDFTPELGRWLYALLACLEKPLLPEAHSLIRQLARRCSEVRLLVDSKDDERVPALNLLICLVSRYFDQRDLADEPS
notes: In vitro translated (35S) or expressed in 293T cells; also called myc-SIP1; myc-Gemin2
binding result [5]: binds

B6: SIP1 (human), in vitro translated and 35S-labeled (other)
chain: MRRAELAGLKTMAWVPAESAVEELMPRLLPVEPCDLTEGFDPSVPPRTPQEYLRRVQIEAAQCPDVVVAQIDPKKLKRKQSVNISLSGCQPAPEGYSPTLQWQQQQVAQFSTVRQNVNKHRSHWKSQQLDSNVTMPKSEDEEGWKKFCLGEKLCADGAVGPATNESPGIDYVQIGFPPLLSIVSRMNQATVTSVLEYLSNWFGERDFTPELGRWLYALLACLEKPLLPEAHSLIRQLARRCSEVRLLVDSKDDERVPALNLLICLVSRYFDQRDLADEPS
notes: Made in rabbit reticulocyte lysate; also called full-length SIP1; Gemin2
binding result [6]: binds

B7: SIP1 (Gemin2), endogenous protein in human cell extracts (other)
chain: MRRAELAGLKTMAWVPAESAVEELMPRLLPVEPCDLTEGFDPSVPPRTPQEYLRRVQIEAAQCPDVVVAQIDPKKLKRKQSVNISLSGCQPAPEGYSPTLQWQQQQVAQFSTVRQNVNKHRSHWKSQQLDSNVTMPKSEDEEGWKKFCLGEKLCADGAVGPATNESPGIDYVQIGFPPLLSIVSRMNQATVTSVLEYLSNWFGERDFTPELGRWLYALLACLEKPLLPEAHSLIRQLARRCSEVRLLVDSKDDERVPALNLLICLVSRYFDQRDLADEPS
binding result (myc-tagged SMNY272C): binds
binding result [7]: binds
binding result (myc-tagged SMN wild type): binds
